Measured values: patent publication US20040185566A1, “Polypeptides toxic to nematodes and methods of use” (priority 2003, published 2004)
Where “and” joins values, the source holds several entries; their conditions need not be identical. Equal entries are not always repeated.

Columns and labels:
[1] = system: R. similis; assay: Assay for lytic activity against R. similis (microtiter plates); format: in vivo
Experimental: The assays were performed in microtiter plates. Ten microliters of R. similissuspensions were placed in microtiter plate wells. Serially diluted SMP #1 (100U in 0.1 ml stock) was added to the wells. PBS was added to a series of wells containing R. similis as a control. The nematodes were stored at 20° C. and examined for lytic effects or death at 48 and 96 hours.

[2] = system: casein; assay: Proteolytic activity of SMP #1 (casein digestion), pH optimum and activity with detergents/solvents; format: biochemical
Experimental: Proteolytic activity was determined by casein digestion (Kunitz 1947). Substrate consisting of 0.75 ml 1.0% (w/v) casein in 100 mM TRIS/HCL, 1 mM MgCl2 (pH 8) at 30° C. Protease samples (0.1 ml) were brought to 30° C., added to the substrate and incubated at 30° C. After 30 minutes, the reaction was quenched with 0.5ml 10% (w/v) trichloroacetic acid (TCA). After 15 minutes at 25° C., the quenched reaction mixture was centrifuged at 10 000 g for 10 minutes to pellet precipitated protein and the A280 of the supernatant was determined. One unit of proteolytic activity was defined as the amount of enzyme that produced an increase of absorbance at 280 nM of 0.1 under the conditions of the assay.
Several compounds were tested as to characterize the novel protein. Effect of protease inhibitors (30-120 μ/ml antipain dihydrochloride, 1-4 μ/ml aprotinin, 20-80 μg/ml bestatin, 25-50 μg/ml chymostatin, 5-20 μg/ml E-64, 10-60 mM EDTA, 1-74 μg/ml leupeptin, 500-2000 μg/ml Pefabloc SC, 1-4 μ/ml pepstatin, 165-660 μlg/ml phosphoramidon and 100-400 μg/ml PMSF), SDS (0.1%-1%), Tween-20 (0.1%-1%), Triton X-100 (0.1%-1%), ethanol (1%-5%), and 2-mercaptoethanol (0.1%-1%) were determined by addition to the standard reaction mixture. Residual proteolytic activity was determined after incubation at 25° C. for 30 minutes.

[3] = Native isoelectric focusing; format: physicochemical; conditions: polypeptide produced by S. marcescens NRRL B-23112
Experimental: The isoelectric point (pI) of purified SMP#1 was determined using a vertical mini-gel system (Roberston et al. 1987) and 1.5 mm polyacrylamide gels consisting of 5% (w/v) 30:1 acrylamide/bisacrylamide, 10% (v/v) glycerol and 2% (w/v) pH 4-8 ampholytes. Electrode solutions were cooled to 4° C. prior to electrophoresis. The anode solution was 20 mM acetic acid and the cathode solution was 25 mM NaOH. Samples and protein standards (Sigma) were mixed with an equal volume of 50% (v/v) glycerol and 4%(w/v) ampholytes in the pH range of 4-8. Samples were prepared for isoelectric focusing by concentrating and desalting in a centriprep concentrator (Amicon) with a molecular mass exclusion limit of 10 000 Da. Electrophoresis was at 25° C. and 200 volts for 1.5 hours. The gels were fixed with 10% (w/v) trichloroacetic acid for 10 minutes with gentle agitation. Ampholytes were removed by shaking the gel for 2 hours in 1% (w/v) trichloroacetic acid. After rinsing with Milli-Q-water, the gels were stained with 0.25% (w/v) Coomassie blue R-250 in 45% (v/v) methanol and 10% (v/v) acetic acid for 10 minutes. The gels were destained in 45% (v/v) methanol and 10% (v/v) acetic acid until the background was clear.

[4] = system: A. suum; assay: Assay for lytic activity against live A. suum; conditions: for 12 hours Death / 12 hours Lysis / 24 hours Death / 24 hours Lysis: protein conc. 0.1 mg/ml

B1: SMP #1: serratia metalloprotease isolated from S. marcescens NRRL B-23112, amino acid sequence SEQ ID NO:2; selective nematolytic activity (protein, listed as Serratia marcescens)
chain: MQSTKKAIEITESSLAAATTGYDAVDDLLHYHERGNGIQINGKDSFSNEQAGLFITRENQTWNGYKVFGQPVKLTFSFPDYKFSSTNVAGDTGLSKFSAEQQQQAKLSLQSWADVANITFTEVAAGQKANITFGNYSQDRPGHYDYGTQAYAFLPNTIWQGQDLGGQTWYNVNQSNVKHPATEDYGRQTFTHEIGHALGLSHPGDYNAGEGNPTYNDVTYAEDTRQFSLMSYWSETNTGGDNGGHYAAAPLLDDIAAIQHLYGANLSTRTGDTVYGFNSNTGRDFLSTTSNSQKVIFAAWDAGGNDTFDFSGYTANQRINLNEKSFSDVGGLKGNVSIAAGVTIENAIGGSGNDVIVGNAANNVLKGGAGNDVLFGGGGADELWGGAGKDIFVFSAASDSAPGASDWIRDFQKGIDKIDLSFFNKEAQSSDFIHFVDHFSGTAGEALLSYNASSNVTDLSVNIGGHQAPDFLVKIVGQVDVATDFIVHSNGTPGAVSAGRDA
With B1 the “Dead (nematodes counted)” value ([1]; 10 U/well, 10 wells, 20° C.) was 298 and 300, the “% mortality” value ([1]; 10 U/well, 10 wells, 20° C., significant difference (p < 0.05) between treatments) was 99% and 100% and the “lysis / mortality of the nematode on contact” value ([1]; R. similis) was “lyses the nematode”. For the same molecule, the “time until cuticle and body wall are lysed and internal viscera expelled” value ([1]; R. similis) was at most 30 h, the “proteolytic activity retained in the presence of additive” value (from here on “proteolytic activity retained”) ([2]; 2-mercaptoethanol (0.5% v/v)) was “retains full activity” and the “proteolytic activity retained” value ([2]; SDS (1% w/v)) was “retains full activity”. For the same molecule, the “proteolytic activity retained” value ([2]; Triton X-100 (1% w/v)) was “retains full activity”, the “proteolytic activity retained” value ([2]; Tween-20 (1% w/v)) was “retains full activity” and the “proteolytic activity retained” value ([2]; ethanol (5% v/v)) was “retains full activity”. The “Optimum pH” value ([2]; polypeptide produced by S. marcescens NRRL B-23112) was 10, the Isoelectric point [3] was 6.1 and the “lysis / mortality of the nematode on contact” value ([4]; A. suum) was “lyses the nematode”. The “time until cuticle and body wall are lysed and internal viscera expelled” value ([4]; A. suum) was at most 30 h, the “12 hours Death” value ([4]; 10 mM 2-mercaptoethanol) was “(+)” and the “12 hours Lysis” value ([4]; 10 mM 2-mercaptoethanol) was “(+++)”. The “24 hours Death” value ([4]; 10 mM 2-mercaptoethanol) was “(+)” and the “24 hours Lysis” value ([4]; 10 mM 2-mercaptoethanol) was “(+++)”.

B2: papain (protein, UniProt P00784 134-345, looked up)
Papain: IPEYVDWRQKGAVTPVKNQGSCGSCWAFSAVVTIEGIIKIRTGNLNEYSEQELLDCDRRSYGCNGGYPWSALQLVAQYGIHYRNTYPYEGVQRYCRSREKGPYAAKTDGVRQVQPYNEGALLYSIANQPVSVVLEAAGKDFQLYRGGIFVGPCGNKVDHAVAAVGYGPNYILIKNSWGTGWGENGYIRIKRGTGNSYGVCGLYTSSFYPVKN
In the case of B2, the “12 hours Death” value ([4]; 2-mercaptoethanol 0) is reported as “(+)”, the “12 hours Lysis” value ([4]; 2-mercaptoethanol 0) is reported as “(+++)” and the “24 hours Death” value ([4]; 2-mercaptoethanol 0) is reported as “(+)”. The “24 hours Lysis” value ([4]; 2-mercaptoethanol 0) was “(+++)”.
